T1: AnkB 28–847 (MBD + partial AI-c) (human, UniProt Q01484-2 28-847)
T1 chain: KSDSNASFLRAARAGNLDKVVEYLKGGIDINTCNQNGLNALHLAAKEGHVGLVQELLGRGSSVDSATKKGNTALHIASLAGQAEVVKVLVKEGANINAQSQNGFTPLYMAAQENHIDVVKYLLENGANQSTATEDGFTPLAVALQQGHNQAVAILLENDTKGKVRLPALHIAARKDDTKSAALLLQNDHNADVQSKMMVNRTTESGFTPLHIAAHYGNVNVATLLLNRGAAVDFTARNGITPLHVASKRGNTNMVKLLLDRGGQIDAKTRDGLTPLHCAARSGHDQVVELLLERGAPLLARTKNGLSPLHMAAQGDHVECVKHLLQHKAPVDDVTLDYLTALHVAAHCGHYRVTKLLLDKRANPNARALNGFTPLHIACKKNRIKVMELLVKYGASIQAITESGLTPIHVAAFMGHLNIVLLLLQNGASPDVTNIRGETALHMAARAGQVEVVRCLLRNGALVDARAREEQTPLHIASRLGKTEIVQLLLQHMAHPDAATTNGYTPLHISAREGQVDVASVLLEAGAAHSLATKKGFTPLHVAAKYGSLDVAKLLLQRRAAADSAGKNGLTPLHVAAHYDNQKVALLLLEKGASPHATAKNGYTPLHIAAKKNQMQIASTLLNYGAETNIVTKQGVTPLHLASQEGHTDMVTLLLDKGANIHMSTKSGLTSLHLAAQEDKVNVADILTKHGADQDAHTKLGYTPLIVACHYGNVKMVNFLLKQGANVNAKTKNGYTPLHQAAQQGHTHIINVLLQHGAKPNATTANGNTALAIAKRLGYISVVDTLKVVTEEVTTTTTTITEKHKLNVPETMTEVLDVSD

T2: AnkG 38–855 (AnkG MBD-AI-c protein; MBD + partial AI-c) (rat, UniProt O70511-1 38-855)
T2 chain: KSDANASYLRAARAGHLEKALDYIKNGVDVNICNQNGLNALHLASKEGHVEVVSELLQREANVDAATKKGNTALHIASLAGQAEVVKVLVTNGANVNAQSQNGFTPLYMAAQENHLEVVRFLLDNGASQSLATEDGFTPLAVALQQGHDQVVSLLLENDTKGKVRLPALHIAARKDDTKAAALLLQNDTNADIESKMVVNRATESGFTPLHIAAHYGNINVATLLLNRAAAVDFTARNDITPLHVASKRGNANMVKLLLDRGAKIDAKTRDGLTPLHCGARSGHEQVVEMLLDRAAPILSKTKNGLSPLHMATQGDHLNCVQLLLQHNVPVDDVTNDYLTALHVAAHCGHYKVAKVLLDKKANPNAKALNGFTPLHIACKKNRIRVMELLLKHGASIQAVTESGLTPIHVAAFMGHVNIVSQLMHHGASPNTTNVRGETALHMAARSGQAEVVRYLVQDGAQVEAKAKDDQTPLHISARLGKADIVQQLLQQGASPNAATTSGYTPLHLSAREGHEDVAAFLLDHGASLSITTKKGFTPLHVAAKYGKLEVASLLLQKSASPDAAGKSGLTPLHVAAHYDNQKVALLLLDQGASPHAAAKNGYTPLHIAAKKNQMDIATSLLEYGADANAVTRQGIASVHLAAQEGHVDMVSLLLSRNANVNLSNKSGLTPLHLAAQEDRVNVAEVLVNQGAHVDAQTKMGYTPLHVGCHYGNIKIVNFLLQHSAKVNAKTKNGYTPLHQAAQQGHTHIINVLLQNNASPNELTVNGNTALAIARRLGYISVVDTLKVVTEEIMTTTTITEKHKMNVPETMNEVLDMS

T3: AnkB_MBD (AnkB ANK repeats only, aa 28–827) (human, UniProt Q01484-2 28-827)
T3 chain: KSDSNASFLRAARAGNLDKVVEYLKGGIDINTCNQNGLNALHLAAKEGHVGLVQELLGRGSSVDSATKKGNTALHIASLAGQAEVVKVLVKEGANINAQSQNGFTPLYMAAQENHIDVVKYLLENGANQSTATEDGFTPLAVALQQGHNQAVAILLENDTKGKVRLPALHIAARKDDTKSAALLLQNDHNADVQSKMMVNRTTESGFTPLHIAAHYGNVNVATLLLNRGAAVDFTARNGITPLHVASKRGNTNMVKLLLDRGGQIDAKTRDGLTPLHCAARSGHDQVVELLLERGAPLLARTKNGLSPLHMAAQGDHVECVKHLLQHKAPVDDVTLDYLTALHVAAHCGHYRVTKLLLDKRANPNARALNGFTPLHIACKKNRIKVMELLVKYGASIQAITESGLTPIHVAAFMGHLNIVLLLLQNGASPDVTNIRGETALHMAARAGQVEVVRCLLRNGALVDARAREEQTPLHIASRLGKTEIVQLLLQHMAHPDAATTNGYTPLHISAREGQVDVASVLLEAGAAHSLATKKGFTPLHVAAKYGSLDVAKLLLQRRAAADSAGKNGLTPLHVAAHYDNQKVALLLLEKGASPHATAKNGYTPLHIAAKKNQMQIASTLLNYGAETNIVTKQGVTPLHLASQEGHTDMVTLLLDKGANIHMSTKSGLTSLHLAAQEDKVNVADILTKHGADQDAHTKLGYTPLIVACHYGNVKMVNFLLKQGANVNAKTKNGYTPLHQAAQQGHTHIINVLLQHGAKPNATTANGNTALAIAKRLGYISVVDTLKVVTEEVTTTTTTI

T4: AnkG 38–903 (MBD + AI-c + AI-b) (rat, UniProt O70511-1 38-903)
T4 chain: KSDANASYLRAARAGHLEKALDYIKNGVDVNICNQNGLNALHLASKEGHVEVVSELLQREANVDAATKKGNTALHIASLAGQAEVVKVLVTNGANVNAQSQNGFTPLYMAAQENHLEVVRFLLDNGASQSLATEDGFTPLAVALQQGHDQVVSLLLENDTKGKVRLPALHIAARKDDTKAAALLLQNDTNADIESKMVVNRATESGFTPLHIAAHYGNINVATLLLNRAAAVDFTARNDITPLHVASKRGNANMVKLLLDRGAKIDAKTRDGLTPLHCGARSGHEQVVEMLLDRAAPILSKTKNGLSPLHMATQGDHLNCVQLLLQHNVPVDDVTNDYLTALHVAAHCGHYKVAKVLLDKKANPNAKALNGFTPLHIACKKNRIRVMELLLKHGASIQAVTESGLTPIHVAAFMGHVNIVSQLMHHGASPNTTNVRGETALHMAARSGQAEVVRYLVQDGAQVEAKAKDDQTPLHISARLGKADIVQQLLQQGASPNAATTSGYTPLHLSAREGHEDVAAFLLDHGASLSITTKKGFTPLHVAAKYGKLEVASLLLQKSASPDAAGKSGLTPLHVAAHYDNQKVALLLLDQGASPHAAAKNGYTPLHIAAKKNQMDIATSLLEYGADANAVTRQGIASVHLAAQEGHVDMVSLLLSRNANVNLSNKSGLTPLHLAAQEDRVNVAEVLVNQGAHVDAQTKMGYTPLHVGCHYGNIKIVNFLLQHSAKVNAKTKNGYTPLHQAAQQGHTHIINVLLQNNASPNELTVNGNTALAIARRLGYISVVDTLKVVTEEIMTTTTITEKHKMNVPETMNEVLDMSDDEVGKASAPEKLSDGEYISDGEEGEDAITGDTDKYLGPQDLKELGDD

T5: AnkB 28–965 (MBD + AI-c + AI-b) (human, UniProt Q01484-2 28-965)
T5 chain: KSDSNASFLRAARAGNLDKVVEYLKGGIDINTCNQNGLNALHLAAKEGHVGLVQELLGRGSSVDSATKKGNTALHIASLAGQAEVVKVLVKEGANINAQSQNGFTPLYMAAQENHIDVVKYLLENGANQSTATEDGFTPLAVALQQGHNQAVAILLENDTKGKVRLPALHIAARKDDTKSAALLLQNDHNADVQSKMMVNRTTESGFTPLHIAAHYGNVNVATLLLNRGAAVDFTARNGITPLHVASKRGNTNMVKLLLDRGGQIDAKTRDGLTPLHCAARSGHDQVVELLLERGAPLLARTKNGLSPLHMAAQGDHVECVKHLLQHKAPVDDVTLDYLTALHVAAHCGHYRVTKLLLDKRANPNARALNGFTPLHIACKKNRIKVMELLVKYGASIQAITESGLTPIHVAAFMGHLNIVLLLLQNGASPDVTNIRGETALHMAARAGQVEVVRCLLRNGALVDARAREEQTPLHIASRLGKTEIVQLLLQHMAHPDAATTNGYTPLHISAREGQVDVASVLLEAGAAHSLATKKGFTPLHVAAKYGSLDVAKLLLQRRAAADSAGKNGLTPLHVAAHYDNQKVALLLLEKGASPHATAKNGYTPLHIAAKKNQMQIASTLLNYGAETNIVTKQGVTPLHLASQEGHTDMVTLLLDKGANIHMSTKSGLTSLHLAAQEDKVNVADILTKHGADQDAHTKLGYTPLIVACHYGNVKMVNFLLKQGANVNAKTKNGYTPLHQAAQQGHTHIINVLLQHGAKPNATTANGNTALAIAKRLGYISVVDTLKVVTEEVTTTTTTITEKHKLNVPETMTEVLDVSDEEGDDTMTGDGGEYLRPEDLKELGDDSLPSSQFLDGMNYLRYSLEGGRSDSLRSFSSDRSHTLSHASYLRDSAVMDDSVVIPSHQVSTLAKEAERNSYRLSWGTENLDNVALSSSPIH

B1: AnkB 828-896 (protein)
chain: TEKHKLNVPETMTEVLDVSDEEGDDTMTGDGGEYLRPEDLKELGDDSLPSSQFLDGMNYLRYSLEGGRS
B2: Nav1.2 (aa 1035–1129) (domain or fragment)
chain: KALDEIKPLEDLNNKKDSCISNHTTIEIGKDLNYLKDGNGTTSGIGSSVEKYVVDESDYMSFINNPSLTVTVPIAVGESDFENLNTEEFSSESDM

Key:
[1] = target: T1, AnkB 28–847 (MBD + partial AI-c); assay: ITC
[2] = target: T1, AnkB 28–847 (MBD + partial AI-c); assay: ITC; AnkB 874-965
[3] = target: T2, AnkG 38–855 (AnkG MBD-AI-c protein; MBD …); assay: ITC
[4] = target: T3, AnkB_MBD (AnkB ANK repeats only, aa …); assay: ITC
[5] = target: T4, AnkG 38–903 (MBD + AI-c + AI-b); assay: ITC
[6] = target: T5, AnkB 28–965 (MBD + AI-c + AI-b); assay: ITC

Row | Binder | Kd [1] [µM] | Kd [3] [µM] | Kd [4] [µM] | also measured
1 | SLPSSQFLDGMNYLRYSLEGGRS [AnkB 874-896] | 13 |  |  | 
2 | SLPSSQFLDGMNYLRYSLEGGRS (domain or fragment) [AnkB AI-b fragment with residues 865 to 873 deleted] |  |  |  | Kd [2]: 17 µM
3 | EDLKELGDDSLPSSQFLDGMNALRYSLEGGRS (domain or fragment) [AnkB_AI-b Tyr886Ala] | 16 |  |  | 
4 | B1 | 2.7 |  |  | 
5 | SDGEEGEDAITGDTDKYLGPQDLKELGDD (domain or fragment) [AnkG_AI-b (aa 875–903)] |  | 3.5 |  | 
6 | TEKHKLNVPETMTEVQDVSDEEGDD (domain or fragment) [AnkB_AI-c Leu843Gln] |  |  | 3.9 | 
7 | TEKHKLNVPETQTEVLDVSDEEGDD (domain or fragment) [AnkB_AI-c Met839Gln] |  |  | 4.4 | 
8 | TEKHKLKVPETMTEVLDVSDEEGDD (domain or fragment) [AnkB_AI-c Asn834Lys] |  |  | 2.7 | 
9 | KASAPEKLSDGEYISDGEEGEDAITGDTDKYLGPQDLKELGDD [AnkG 861-903] |  | 1.1 |  | 
10 | B2 |  | 0.25 |  | Kd [5]: 1.5 µM; Kd [6]: 5.8 µM
